B1: OR4K15 (parent)
chain: GUUAACGGUCAUAGGCCAUGGAAACUAGGAGCACCAUUUCGCUGCCAGUGAAGAAAUGAACAAAGAAAAUCUGGGCCAGGCAGGCAUCAAAAGAAAUAGUCUUGCGCUCAACCAGAAAGUCUGUAAUCAUUUUAAGGGUA

Variants of: B1
Test: self-cleavage, relative activity (ratio to wild type); higher = more cleavage; in vitro, sequencing; the parent is a self-cleaving ribozyme

Variant | self-cleavage
C34U U122C | 2.62
A36U A67U | 1.55
A36U A67G | 1.86
C34U A62G | 1.25
C35U U102A | 0.81
C35U A52G | 1.03
A36U C76A | 0.1
A36G U37C | 1.71
A36G U124C | 0.45
A36G A89G | 1.52
A36G A125G | 0.6
A36G C113U | 0.07
C35A C112U | 0.03
A36G G136A | 1.79
A36G U133A | 2.28
A36G A126G | 1.48
A36G A126U | 1.76
A36G A95G | 2.04
A36U U49A | 0.81
C34U A96G | 2.68
A36G U108C | 0.01
C34U U124A | 0.3
A36G A51U | 1.86
A36G A51G | 0.9

Variant | self-cleavage
C35A A91G | 1.42
A36U A129G | 1.12
A36G A92G | 1
A36G A92C | 2.15
A36C A94G | 1.94
A36U A114U | 0.14
A36U A114G | 0.6
C34G U132C | 2.44
A36U A78C | 0.23
C34U A59U | 0.75
C34U U39C | 1.5
A36G U120G | 1.29
A36G U120C | 1.28
A36G U120A | 2.61
C34U A95G | 0.45
A36G A55U | 1.38
A36G A55G | 1.18
C35U A126G | 0.58
C34U A129G | 0.51
A36G C76A | 0.12
C34U A118G | 1.49
A36G U39C | 0.79
A36C U38C | 1.43
A36G U103C | 0.43

Variant | self-cleavage
A36G A69G | 1.37
A36G A91U | 1.95
A36G A91C | 1.96
A36G A91G | 0.95
A36G U97C | 2.04
A36U A118G | 1.05
A36C A114G | 0.9
C34U U49C | 1.17
C34G A67G | 1.12
A36C A96G | 1.9
A36U C105U | 0.17
C35U A98U | 1.52
A36G A62C | 1.51
A36G A62U | 2.06
A36C A55G | 1.7
C35A A51U | 1.93
A36G A129G | 1.3
A36G U43A | 1.27
A36G U43C | 1.91
A36U A51U | 1.72
A36U A51G | 1.82
C34U A92G | 1.04
A36G A96C | 0.95
A36U A140G | 2.09

Variant | self-cleavage
A36C U37A | 1.85
A36U A82G | 0.39
C34U A55G | 2.06
C34U U70C | 0.23
C35A A94G | 2.34
A36C A60G | 0.49
A36U A92G | 1.61
A36U A63G | 1.98
C35U C88A | 1.16
A36U U103A | 0.63
A36U U103C | 1.16
C35U U57C | 0.58
A36G A82C | 0.2
A36G A117G | 2.27
A36G A117U | 1.29
A36G U87A | 2.26
A36G U87C | 2.04
C35A | 1.58
C35U | 1.06
C35G | 1.34
C34U A91G | 1.1
A36G A63C | 2.09
A36G A63G | 1.32
A36G A63U | 1.91

Variant | self-cleavage
C34U C76U | 0.12
A36U A110G | 0.21
C35U A135G | 1.57
C34U G41U | 1.82
A36U A135U | 1.85
C34U U120G | 0.94
A36U A60U | 2.08
A36U A60G | 1.11
C34U U127C | 1.39
A36G A59U | 0.83
A36G A59G | 1.75
C35A A66G | 0.76
C35U A56G | 1.13
C34U A126G | 1.12
A36G U70C | 0.6
C34U U131C | 0.84
A36G C112U | 0.03
A36G A116G | 0.76
A36U A62C | 0.87
C34U C128A | 1.3
A36U A55U | 0.98
A36C A66U | 1.68
A36G A60U | 0.82
A36G G41A | 2.26

Variant | self-cleavage
C35U A60G | 0.76
A36G C85U | 0.98
C35U U38C | 0.61
C35U G136U | 1.19
A36G U102C | 1.88
A36C A59G | 1.68
C35U A64G | 1
C34U U103G | 0.04
C34U U103A | 0.44
A36G A114G | 1.06
C35A C121A | 1.53
C35U A117G | 1.25
A36G G75A | 0.09
A36U C71U | 0.49
A36U A125G | 0.7
A36C U100C | 1.85
A36C G48A | 1.28
A36G A52G | 1.79
A36G A94G | 1.86
C35U U131A | 1.01
C34U U43A | 0.99
C34U U130C | 1.44
A36C U127A | 2.57
A36C U49A | 2

Variant | self-cleavage
A36G A66G | 1.8
A36G A98U | 2.12
A36G A98G | 1.54
A36U A117G | 1.52
A36U A117U | 0.88
C35A G99U | 0.79
A36U A90U | 1.74
C35U A95C | 0.87
A36C A86U | 2.2
A36C A86G | 1.24
A36U U102C | 2.06
A36U U37C | 0.59
C35U U132C | 0.37
A36U U72G | 0.29
A36U A95G | 2.18
A36U A95U | 1.37
A36U A56U | 1.12
A36U A56C | 1.49
A36U A56G | 1.46
C34U U72C | 0.17
A36U C61U | 2.41
A36G G84A | 1.88
A36U U43C | 2.05
